Key:
HLA-A*11:01 [1] = assay: IEDB peptide-MHC binding, purified MHC/competitive/fluorescence; ≥ and ≤ were set here for values at or beyond the usual limits of such assays; details: source organism: Zaire ebolavirus
HLA-A*01:01 [2] = assay: as above; details: source organism: Zaire ebolavirus
HLA-A*02:01 [3] = assay: as above; details: source organism: Zaire ebolavirus
HLA-B*15:01 [4] = assay: as above; details: source organism: Zaire ebolavirus
HLA-A*69:01 = assay: IEDB peptide-MHC binding, purified MHC/competitive/fluorescence; filed as Kd, often an IC50 or EC50 that approximates it; ≥ and ≤ were set here for values at or beyond the usual limits of such assays
HLA-B*51:01 = assay: as above; details: source organism: Zaire ebolavirus
HLA-B*18:01 = assay: as above
HLA-B*57:01 = assay: as above; details: source organism: Zaire ebolavirus
HLA-B*27:03 = assay: as above; details: source organism: Zaire ebolavirus
HLA-B*46:01 = assay: as above
HLA-A*26:01 = assay: as above; details: source organism: Zaire ebolavirus
HLA-B*39:01 = assay: as above
HLA-A*02:01 [5] = assay: as above
HLA-B*15:01 [6] = assay: as above
HLA-A*02:03 = assay: IEDB peptide-MHC binding, purified MHC/direct/fluorescence; filed as Kd, often an IC50 or EC50 that approximates it; ≥ and ≤ were set here for values at or beyond the usual limits of such assays; details: source organism: Zaire ebolavirus
HLA-A*03:01 [7] = assay: as above; details: source organism: Zaire ebolavirus
HLA-A*02:16 = assay: as above; details: source organism: Zaire ebolavirus
HLA-A*02:11 = assay: as above; details: source organism: Zaire ebolavirus
HLA-A*23:01 = assay: as above; details: source organism: Zaire ebolavirus
HLA-A*02:19 = assay: as above; details: source organism: Zaire ebolavirus
HLA-A*02:12 = assay: as above; details: source organism: Zaire ebolavirus
HLA-A*01:01 [8] = assay: as above; details: source organism: Zaire ebolavirus
HLA-A*29:02 = assay: as above; details: source organism: Zaire ebolavirus
HLA-A*68:02 = assay: as above; details: source organism: Zaire ebolavirus
HLA-A*24:03 = assay: as above; details: source organism: Zaire ebolavirus
HLA-A*30:01 = assay: IEDB peptide-MHC binding, purified MHC/competitive/fluorescence; filed as Kd, often an IC50 or EC50 that approximates it; ≥ and ≤ were set here for values at or beyond the usual limits of such assays
HLA-A*11:01 [9] = assay: as above; details: source organism: Human immunodeficiency virus 1
HLA-A*01:01 [10] = assay: as above
HLA-B*15:17 = assay: as above; details: source organism: Human immunodeficiency virus 1
HLA-B*08:02 = assay: as above
HLA-A*03:01 [11] = assay: as above; details: source organism: Corynebacterium glutamicum R
HLA-A*31:01 = assay: as above; details: source organism: Corynebacterium glutamicum R
HLA-B*58:01 [12] = assay: as above; details: source organism: Corynebacterium glutamicum R
HLA-B*27:05 = assay: as above; details: source organism: Corynebacterium glutamicum R
HLA-B*35:01 = assay: as above; details: source organism: Corynebacterium glutamicum R
HLA-B*08:01 = assay: as above; details: source organism: Corynebacterium glutamicum R
HLA-B*07:02 = assay: as above; details: source organism: Corynebacterium glutamicum R
HLA-B*40:01 = assay: as above; details: source organism: Corynebacterium glutamicum R
HLA-B*58:01 [13] = assay: IEDB peptide-MHC binding, purified MHC/direct/fluorescence; filed as Kd, often an IC50 or EC50 that approximates it; ≥ and ≤ were set here for values at or beyond the usual limits of such assays; details: source organism: Sudan ebolavirus - Maleo (1979)
HLA-B*15:02 = assay: IEDB peptide-MHC binding, purified MHC/competitive/fluorescence; filed as Kd, often an IC50 or EC50 that approximates it; ≥ and ≤ were set here for values at or beyond the usual limits of such assays
HLA-C*15:02 = assay: IEDB peptide-MHC binding, purified MHC/direct/fluorescence; filed as Kd, often an IC50 or EC50 that approximates it; ≥ and ≤ were set here for values at or beyond the usual limits of such assays; details: source organism: Bacillus anthracis str. A0488
HLA-C*14:02 = assay: as above; details: source organism: Bacillus anthracis str. A0488
HLA-C*12:03 = assay: as above; details: source organism: Bacillus anthracis str. A0488
[14] = source organism: Zaire ebolavirus
[15] = source organism: Human immunodeficiency virus 1
[16] = source organism: Corynebacterium glutamicum R

ATEDPSSGY
IC50 (HLA-A*11:01 [1]): 49.6 µM
IC50 (HLA-A*01:01 [2]): ≥ 154 µM
IC50 (HLA-A*02:01 [3]): ≥ 379 µM
IC50 (HLA-B*15:01 [4]): ≥ 97.2 µM
Kd (HLA-A*69:01; [14]): ≥ 20 µM
Kd (HLA-B*51:01): ≥ 20 µM
Kd (HLA-B*18:01; [14]): ≥ 20 µM
Kd (HLA-B*57:01): ≥ 20 µM
Kd (HLA-B*27:03): ≥ 20 µM
Kd (HLA-B*46:01; [14]): ≥ 20 µM
Kd (HLA-A*26:01): ≥ 20 µM
Kd (HLA-B*39:01; [14]): ≥ 20 µM
Kd (HLA-A*02:01 [5]; [14]): ≥ 20 µM
Kd (HLA-B*15:01 [6]; [14]): ≥ 20 µM
Kd (HLA-A*02:03): ≥ 20 µM
Kd (HLA-A*03:01 [7]): ≥ 20 µM
Kd (HLA-A*02:16): ≥ 20 µM
Kd (HLA-A*02:11): ≥ 20 µM
Kd (HLA-A*23:01): ≥ 20 µM
Kd (HLA-A*02:19): ≥ 20 µM
Kd (HLA-A*02:12): ≥ 20 µM
Kd (HLA-A*01:01 [8]): 0.438 µM
Kd (HLA-A*29:02): ≥ 20 µM
Kd (HLA-A*68:02): ≥ 20 µM
Kd (HLA-A*24:03): ≥ 20 µM

GTEELKSLY
Kd (HLA-A*30:01; [15]): ≥ 20 µM
Kd (HLA-A*11:01 [9]): ≥ 20 µM
Kd (HLA-A*01:01 [10]; [15]): 0.0163 µM
Kd (HLA-B*15:17): 0.0595 µM
Kd (HLA-B*08:02; [15]): ≥ 20 µM
Kd (HLA-B*39:01; [15]): ≥ 20 µM

RYDDGQSIY
Kd (HLA-A*03:01 [11]): ≥ 20 µM
Kd (HLA-A*31:01): ≥ 20 µM
Kd (HLA-A*30:01; [16]): ≥ 20 µM
Kd (HLA-A*69:01; [16]): ≥ 20 µM
Kd (HLA-B*58:01 [12]): ≥ 20 µM
Kd (HLA-B*27:05): ≥ 20 µM
Kd (HLA-B*18:01; [16]): ≥ 20 µM
Kd (HLA-B*35:01): ≥ 20 µM
Kd (HLA-A*01:01 [10]; [16]): 19.7 µM
Kd (HLA-B*08:01): ≥ 20 µM
Kd (HLA-B*08:02; [16]): ≥ 20 µM
Kd (HLA-B*46:01; [16]): ≥ 20 µM
Kd (HLA-B*07:02): ≥ 20 µM
Kd (HLA-B*40:01): ≥ 20 µM
Kd (HLA-A*02:01 [5]; [16]): ≥ 20 µM
Kd (HLA-B*15:01 [6]; [16]): ≥ 20 µM

TGIVSSMHY
Kd (HLA-A*69:01; [14]): ≥ 20 µM
Kd (HLA-B*51:01): ≥ 20 µM
Kd (HLA-B*18:01; [14]): ≥ 20 µM
Kd (HLA-B*57:01): ≥ 20 µM
Kd (HLA-B*27:03): ≥ 20 µM
Kd (HLA-B*46:01; [14]): ≥ 20 µM
Kd (HLA-A*26:01): ≥ 20 µM
Kd (HLA-B*39:01; [14]): ≥ 20 µM
Kd (HLA-A*02:01 [5]; [14]): ≥ 20 µM
Kd (HLA-A*02:03): ≥ 20 µM
Kd (HLA-A*03:01 [7]): ≥ 20 µM
Kd (HLA-A*02:11): ≥ 20 µM
Kd (HLA-B*58:01 [13]): ≥ 20 µM
Kd (HLA-A*23:01): ≥ 20 µM
Kd (HLA-A*02:19): ≥ 20 µM
Kd (HLA-A*02:12): ≥ 20 µM
Kd (HLA-A*68:02): ≥ 20 µM
Kd (HLA-A*24:03): ≥ 20 µM

YIRGVCSAF
Kd (HLA-B*15:02; source organism: Vibrio parahaemolyticus RIMD 2210633): 0.0807 µM

YLARYSGSM
Kd (HLA-B*15:02; source organism: Bacillus anthracis str. A0488): 0.0123 µM
Kd (HLA-C*15:02): ≥ 20 µM
Kd (HLA-C*14:02): 0.03 µM
Kd (HLA-C*12:03): 0.3 µM
